Molecular target: H. pylori-bullfrog hybrid ferritin nanoparticle (bullfrog (Rana catesbeiana) | Helicobacter pylori)
Experiment: SEC

Work on “H. pylori-bullfrog hybrid ferritin nanoparticle” yielded a stoichiometry N of 24.
